In general, Kd refers to the free concentration of one partner at which half of the binding sites on the other are occupied at equilibrium, for simple one-to-one binding. Low values mean tighter binding, high ones weaker binding. The stoichiometry N is the number of molecules, sites or subunits per partner or assembly. As usually defined, the koff is a measure of how fast the partners let go of each other. Low readings indicate slow dissociation, high ones fast dissociation. Broadly, the kon is a measure of how fast the partners come together.

Where a chain is given by its changes, count along the chain named. Names and notes keep the numbering of the source.

This is an account of results in publication PMC4140853 (PLoS Pathogens, 2014).

The target of test [1] is HLA-DQ2 (A1*0501/B1*0201) with the CLIP1 peptide covalently linked to the beta chain, soluble, Fos-Jun leucine zipper. The experiment in a line: BLI. For orientation: BLI is a label-free optical method that tracks binding on a fibre tip over time.
Test [2] has the same target. As to the kind of experiment: BLI; Octet RED96; site-specifically biotinylated HLA-DQ2 (CLIP1) immobilised on streptavidin (SA) tips; analyte gp42 or preformed gHgL/gp42 complex; equilibrium (steady state) analysis of the same data.
The target of test [3] is T1, EBV gHgL (soluble gH residues 18-679 / gL residues 24-137 heterodimer) (Epstein-Barr virus, UniProt P03231;P03212). As to the kind of experiment: cell-based or functional assay.
Test [4] deals with T1, EBV gHgL (soluble gH residues 18-679 / …). As to the kind of experiment: BLI. The following applies: both partners purified.
The target is the same in test [5]. As to the kind of experiment: BLI. The following applies: both partners purified. The source holds these as a separate data set.
The target is the same in test [6]. The experiment in a line: SEC; Superdex 200 gel filtration of purified proteins and their mixtures; 20 mM Tris, 150 mM NaCl, pH 7.4; peak components verified by SDS-PAGE (data not shown). The following applies: both partners purified.
The target is the same in test [7]. The experiment in a line: BLI; Octet RED96; biotinylated gHgL immobilised on streptavidin (SA) tips, soluble gp42 as analyte; equilibrium analysis of the same data. The following applies: both partners purified.

In test [1], “EBV gp42 C114S single mutant, soluble (residues 33-223) (from UniProt P03205 33-223) (natural protein)” had a KD1 (2:1 heterogeneous ligand fit, primary component) of 88.8 nM and a KD2 (2:1 heterogeneous ligand fit, secondary component) of 3.45 nM. In addition, in test [2], the Kd came to 97 nM.

With “EBV gp42 C114S/I159C double mutant (referred to as I159C), soluble (residues 33-223) (from UniProt P03205 33-223) (natural protein)”, in test [1], the KD1 (2:1 heterogeneous ligand fit, primary component) was 59 nM and the KD2 (2:1 heterogeneous ligand fit, secondary component) was found to be 1.25 nM. The same molecule registered a dissociation constant Kd in test [2] of 29 nM.

B1: EBV gp42 I159C (C114S/I159C), reduced with TCEP and alkylated with iodoacetamide (IAA) (natural protein)
chain: GGGRVAAAAITWVPKPNVEVWPVDPPPPVNFNKTAEQEYGDKEVKLPHWTPTLHTFQVPQNYTKANCTYCNTREYTFSYKGSCFYFTKKKHTWNGCFQACAELYPCTYFYGPTPDILPVVTRNLNACESLWVGVYRVGEGNWTSLDGGTFKVYQIFGSHCTYVSKFSTVPVSHHECSFLKPCLCVSQRSNS
modifications: introduced cysteine 159 reduced with TCEP and alkylated with iodoacetamide (IAA)
For B1, the “virus-free cell-cell fusion (luciferase) of CHO cells expressing gB and gHgL with Daudi B cells, triggered by 0.1 or 1.0 µg soluble gp42 protein; activity relative to wt gp42” value in test [3] is < 10 % of wild type.

B2: EBV gp42 wild type, soluble (residues 33-223) (natural protein)
chain: B1 chain with S82C, C127I
notes: also called gp42 w.t; wt gp42; source: High Five insect cells (baculovirus), secreted, purified (Talon or Ni-NTA, Superdex 200)
Regarding B2, in test [4], the t1/2 for dissociation was around 30 min. For the same molecule, the equilibrium dissociation constant (Kd) in test [5] came to 1.41 nM; in test [7], 4.1 nM. The “stoichiometry N” value in test [6] came out at 1 gp42 per gHgL.

B3: EBV gp42 C114S/I159C double mutant (referred to as I159C), soluble (residues 33-223) (natural protein)
chain: B1 chain
notes: source: High Five insect cells (baculovirus), secreted, purified (Talon or Ni-NTA, Superdex 200)
With B3, in test [5], the affinity, expressed as Kd, was 0.77 nM; the dissociation rate constant (koff) worked out at 0.000295 s⁻¹; the on-rate constant (kon) turned out to be 381000 M⁻¹ s⁻¹. Besides, the affinity in test [7], expressed as Kd, was 13 nM.

B4: EBV gp42 C114S single mutant, soluble (residues 33-223) (natural protein)
chain: B1 chain with C127I
notes: as for B3
As for B4, in test [5], the Kd worked out at 1.29 nM, the dissociation rate constant (koff) was 0.000529 s⁻¹ and the kon stood at 409000 M⁻¹ s⁻¹. For the same molecule, binding in test [7] was put at a Kd of 6.3 nM.
